PMC5400778

Biological target: His-tagged BG505 SOSIP.664 trimer with the N185h glycan site removed (HIV (isolate BG505)) (UniProt Q2N0S6)
Test: SPR; Biacore 3000, 25°C; His-tagged BG505 SOSIP trimers immobilised on the chip by His-tag capture; PGT145 Fab as analyte; kinetic analysis

B1: PGT145 Fab (Fab, V domains shown)
VH: QVQLVQSGAEVKKPGSSVKVSCKASGNSFSNHDVHWVRQATGQGLEWMGWMSHEGDKTGLAQKFQGRVTITRDSGASTVYMELRGLTADDTAIYYCLTGSKHRLRDYFLYNEYGPNYEEWGDYLATLDVWGHGTAVTVSS
VL: EVVITQSPLFLPVTPGEAASLSCKCSHSLQHSTGANYLAWYLQRPGQTPRLLIHLATHRASGVPDRFSGSGSGTDFTLKISRVESDDVGTYYCMQGLHSPWTFGQGTKVEIK
Q: For B1, which stoichiometry N is on record?
A: Its stoichiometry N is 0.96.
